Experimental findings from paper PMC4748815 (RNA, 2016) are described below.

Read-outs that look alike come from different tables or passages of the source.

The chains are these.
T1: His6-tagged mouse GYF2 (mouse, UniProt Q6Y7W8 1-1291)
T1 sequence (looked up): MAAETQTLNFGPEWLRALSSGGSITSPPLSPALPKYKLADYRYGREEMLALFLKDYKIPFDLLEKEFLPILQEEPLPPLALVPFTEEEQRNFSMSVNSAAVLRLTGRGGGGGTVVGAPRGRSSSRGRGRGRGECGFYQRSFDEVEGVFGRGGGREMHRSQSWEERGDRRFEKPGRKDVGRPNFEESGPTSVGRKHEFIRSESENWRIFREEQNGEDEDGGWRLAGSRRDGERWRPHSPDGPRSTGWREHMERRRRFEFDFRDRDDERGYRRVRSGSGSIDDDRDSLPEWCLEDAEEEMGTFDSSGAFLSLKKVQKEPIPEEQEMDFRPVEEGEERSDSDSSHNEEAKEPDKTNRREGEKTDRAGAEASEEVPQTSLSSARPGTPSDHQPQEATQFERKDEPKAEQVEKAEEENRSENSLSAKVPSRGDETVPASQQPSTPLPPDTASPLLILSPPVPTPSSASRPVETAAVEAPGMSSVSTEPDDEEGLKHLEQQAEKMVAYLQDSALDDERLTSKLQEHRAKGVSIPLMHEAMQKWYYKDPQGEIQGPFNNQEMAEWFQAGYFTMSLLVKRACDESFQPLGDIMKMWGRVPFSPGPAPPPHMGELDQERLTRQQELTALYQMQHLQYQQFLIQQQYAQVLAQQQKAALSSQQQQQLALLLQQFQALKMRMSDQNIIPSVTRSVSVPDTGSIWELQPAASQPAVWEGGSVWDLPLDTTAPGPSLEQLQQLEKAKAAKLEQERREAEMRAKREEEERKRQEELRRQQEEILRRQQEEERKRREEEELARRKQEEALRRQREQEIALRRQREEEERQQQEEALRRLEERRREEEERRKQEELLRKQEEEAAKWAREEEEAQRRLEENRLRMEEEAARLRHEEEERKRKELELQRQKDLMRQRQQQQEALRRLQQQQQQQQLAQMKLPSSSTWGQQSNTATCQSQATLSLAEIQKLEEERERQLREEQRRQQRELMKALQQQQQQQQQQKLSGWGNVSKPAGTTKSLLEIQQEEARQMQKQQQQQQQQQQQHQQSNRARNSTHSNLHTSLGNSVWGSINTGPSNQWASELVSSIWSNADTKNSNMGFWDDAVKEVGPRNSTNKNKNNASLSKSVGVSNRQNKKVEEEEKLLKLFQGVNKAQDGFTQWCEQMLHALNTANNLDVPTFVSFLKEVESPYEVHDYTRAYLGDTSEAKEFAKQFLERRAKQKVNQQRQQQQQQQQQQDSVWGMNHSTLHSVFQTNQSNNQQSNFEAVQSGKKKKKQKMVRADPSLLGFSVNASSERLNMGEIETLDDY

B1: His6-tagged mouse 4EHP (natural protein, UniProt Q8BMB3 1-245, looked up)
chain: MNNKFDALKDDDSGDHDQNEENSTQKDGEKEKTDRDKSQSSGKRKAVVPGPAEHPLQYNYTFWYSRRTPGRPTSSQSYEQNIKQIGTFASVEQFWKFYSHMVRPGDLTGHSDFHLFKEGIKPMWEDDANKNGGKWIIRLRKGLASRCWENLILAMLGEQFMVGEEICGAVVSVRFQEDIISIWNKTASDQATTARIRDTLRRVLNLPPNTIMEYKTHTDSIKMPGRLGPQRLLFQNLWKPRLNVP
B2: GST-tagged mouse TTP (natural protein, UniProt P22893 1-319, looked up)
chain: MDLSAIYESLQSMSHDLSSDHGGTESLGGLWNINSDSIPSGVTSRLTGRSTSLVEGRSCGWVPPPPGFAPLAPRPGPELSPSPTSPTATPTTSSRYKTELCRTYSESGRCRYGAKCQFAHGLGELRQANRHPKYKTELCHKFYLQGRCPYGSRCHFIHNPTEDLALPGQPHVLRQSISFSGLPSGRRSSPPPPGFSGPSLSSCSFSPSSSPPPPGDLPLSPSAFSAAPGTPVTRRDPNQACCPSCRRSTTPSTIWGPLGGLARSPSAHSLGSDPDDYASSGSSLGGSDSPVFEAGVFGPPQTPAPPRRLPIFNRISVSE

Test in all cases: pull-down
The assay “GST-tagged mouse TTP” deals with B2.
Assay [1] concerns the target T1, His6-tagged mouse GYF2.
For assay [2], the target named is T1, His6-tagged mouse GYF2. The source holds these as a separate data set.

On to B1, for which the binding result in the assay with GST-tagged mouse TTP and with His6-tagged mouse GYF2 [1] was “binds” throughout. As to B2, the binding result with His6-tagged mouse GYF2 [2] is given as “binds”.
